B1: Pistol ribozyme (parent)
chain: GGGUCGUUGUUCCAUAAUCGCGUGGAUAUGGCACGCAAGUUUCUACCGGGCACCGUAAAUGUCCGACUGGAGCCGUUCGGGCGGCUAUAAACAGACCUCAGGCCCGAAGCGUGGCGGCACCUGCCGCCGGUGGUAAAAAAGAUCGGAAGAGCACACGUCU

Variants of: B1
Assay: aptazyme ON/OFF ratio, guanine; higher = stronger switching; co-transcriptional cleavage with and without guanine

Row | Variant | aptazyme ON/OFF ratio
1 | U7C U8C U10A U11C C12G C13A | 1.22
2 | U7C U8C U10A U11C C12G C13G | 1.22
3 | U7C U8C U10A U11C C12G C13U | 1.29
4 | U7C U8C G9U U10A C12G C13A | 1.16
5 | U7C U8C G9U U10A C12G C13U | 1.08
6 | U7C U8C G9U U10A C12G C13G | 1.12
7 | U7C U8C G9C U11C C13A | 1.28
8 | U7C U8C G9C U11C C13G | 1.04
9 | U7C U8C G9C U11C C13U | 1.24
10 | U7C U8C G9U U10G U11C C12A C13A | 1.18
11 | U7C U8C G9U U10G U11C C12A C13G | 1.07
12 | U7C U8C G9U U10G U11C C12A C13U | 1.1
13 | U7C U8C G9C U11C C12A C13U | 1.18
14 | U7C U8C G9C U11C C12A C13G | 1.04
15 | U7C U8C G9U U10C U11G C13U | 1.29
16 | U7C U8C G9U U10C U11G C13G | 1.3
17 | U7C U8C G9U U10C U11G C13A | 1.07
18 | U7C U8C U10A U11A | 1.63
19 | U7C U8C U10A U11C | 1.03
20 | U7C U8C U10A U11G | 1.37
21 | U7C U8C G9U U10G U11G C12A C13G | 1.09

Row | Variant | aptazyme ON/OFF ratio
22 | U7C U8C G9U U10G U11G C12A C13U | 1.1
23 | U7C U8C G9U U10G U11G C12A C13A | 1.01
24 | U7C U8C G9U U10A U11C C12U | 1.19
25 | U7C U8C G9U U10A U11C C12A | 1.19
26 | U7C U8C G9U U10A U11C C12G | 1.36
27 | U7C U8C G9U U10G | 1.42
28 | U7C U8C G9U U10A | 1.13
29 | U7C U8C G9U U10C | 2.52
30 | U7C U8C G9C U11G C12A C13A | 1.13
31 | U7C U8C G9C U11G C12A C13G | 1.1
32 | U7C U8C G9C U11G C12A C13U | 1.09
33 | U7C U8C G9U U10C C12G C13G | 1.11
34 | U7C U8C G9U U10C C12G C13A | 1.11
35 | U7C U8C G9U U10C C12G C13U | 1.13
36 | U7C U8C G9U | 2.34
37 | U7C U8C G9U U11G C12A C13G | 1.11
38 | U7C U8C G9U U11G C12A C13A | 1.19
39 | U7C U8C G9U U11G C12A C13U | 1.14
40 | U7C U8C G9U U10G U11G C12G C13A | 1.1
41 | U7C U8C G9U U10G U11G C12G C13G | 1.06
42 | U7C U8C G9U U10G U11G C12G C13U | 1.06

Row | Variant | aptazyme ON/OFF ratio
43 | U7C U8C G9U U10A U11A C12G C13G | 1.19
44 | U7C U8C G9U U10A U11A C12G C13U | 1.11
45 | U7C U8C G9U U10A U11A C12G C13A | 1.03
46 | U7C U8C G9U U10A U11C C13U | 1.1
47 | U7C U8C G9U U10A U11C C13A | 1.15
48 | U7C U8C G9U U10A U11C C13G | 1.07
49 | U7C U8C G9U C12U C13G | 1.02
50 | U7C U8C G9U C12U C13U | 1.3
51 | U7C U8C G9U C12U C13A | 1.06
52 | U7C U8C G9U U11A C12G C13U | 1.13
53 | U7C U8C G9U U11A C12G C13G | 1.16
54 | U7C U8C G9U U11A C12G C13A | 1.07
55 | U7C U8C G9U U10C U11A C12G C13G | 1.15
56 | U7C U8C G9U U10C U11A C12G C13A | 1.13
57 | U7C U8C G9U U10C U11A C12G C13U | 1.09
58 | U7C U8C G9U U10A C12A C13U | 1.2
59 | U7C U8C G9U U10A C12A C13G | 1.07
60 | U7C U8C G9U U10A C12A C13A | 1.2
61 | U7C U8C G9C U11G C12U C13G | 1.07
62 | U7C U8C G9C U11G C12U C13U | 1.1
63 | U7C U8C G9C U11G C12U C13A | 1.06

Row | Variant | aptazyme ON/OFF ratio
64 | U7C U8C G9U U11A | 1.64
65 | U7C U8C G9U U11C | 1.1
66 | U7C U8C G9U U11G | 1.16
67 | U7C U8C G9U C12A | 1.36
68 | U7C U8C G9U C12U | 1.61
69 | U7C U8C G9U C12G | 1.29
70 | U7C U8C G9U U11A C13A | 1.17
71 | U7C U8C G9U U11A C13U | 1.15
72 | U7C U8C G9U U11A C13G | 1.07
73 | U7C U8C G9C U11G | 1.24
74 | U7C U8C G9U U10G C13A | 1.21
75 | U7C U8C G9U U10G C13U | 1.39
76 | U7C U8C G9U U10G C13G | 1.12
77 | U7C U8C G9U U11C C12U | 1.04
78 | U7C U8C G9U U11C C12G | 1.22
79 | U7C U8C G9U U11C C12A | 1.17
80 | U7C U8C G9C U11C C12U | 1.32
81 | U7C U8C G9C U11C C12G | 1.24
82 | U7C U8C G9U U11G C12U | 1.19
83 | U7C U8C G9U U11G C12G | 1.19
84 | U7C U8C G9U U11G C12A | 1.19

— the RNAGym collection of RNA variant scans (doi:10.1021/acssynbio.7b00057)
